Laboratory results published in patent US7799901B2, “Modulators of the function of FAS receptors and other proteins” (Yeda Research and Development Co. Ltd., priority 1995, dated 2010).

T1: MORT-1 (Homo sapiens, UniProt Q13158, G32V)
T1 sequence (Q13158 with tags, fused parts or gaps G32V): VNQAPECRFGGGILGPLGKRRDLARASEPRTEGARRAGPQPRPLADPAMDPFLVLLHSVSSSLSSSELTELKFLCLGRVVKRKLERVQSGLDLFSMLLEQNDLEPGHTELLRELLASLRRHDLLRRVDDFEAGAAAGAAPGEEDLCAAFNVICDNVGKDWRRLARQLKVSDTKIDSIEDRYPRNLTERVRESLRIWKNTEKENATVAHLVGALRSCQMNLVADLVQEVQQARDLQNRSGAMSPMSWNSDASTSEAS

B1: MACHα1 (C360S): MACHα1 mutant in which the catalytic cysteine Cys360 is replaced by Ser (protein)
chain: MDFSRNLYDIGEQLDSEDLASLKFLSLDYIPQRKQEPIKDALMLFQRLQEKRMLEESNLSFLKELLFRINRLDLLITYLNTRKEEMERELQTPGRAQISAYRVMLYQISEEVSRSELRSFKFLLQEEISKCKLDDDMNLLDIFIEMEKRVILGEGKLDILKRVCAQINKSLLKIINDYEEFSKERSSSLEGSPDEFSNGEELCGVMTISDSPREQDSESQTLDKVYQMKSKPRGYCLIINNHNFAKAREKVPKLHSIRDRNGTHLDAGALTTTFEELHFEIKPHDDCTVEQIYEILKIYQLMDHSNMDCFICCILSHGDKGIIYGTDGQEAPIYELTSQFTGLKCPSLAGKPKVFFIQASQGDNYQKGIPVETDSEEQPYLEMDLSSPQTRYIPDEADFLLGMATVNNCVSYRNPAEGTWYIQSLCQSLRERCPRGDDILTILTEVNYEVSNKDDKKNMGKQMPQPTFTLRKKLVFPSD
B2: MACHβ1: MACH isoform, cDNA SEQ ID NO: 4, amino acid SEQ ID NO: 5; lacks the CED3/ICE homology region (protein)
chain: MDFSRNLYDIGEQLDSEDLASLKFLSLDYIPQRKQEPIKDALMLFQRLQEKRMLEESNLSFLKELLFRINRLDLLITYLNTRKEEMERELQTPGRAQISAYRVMLYQISEEVSRSELRSFKFLLQEEISKCKLDDDMNLLDIFIEMEKRVILGEGKLDILKRVCAQINKSLLKIINDYEEFSKERSSSLEGSPDEFSNDFGQSLPNEKQTSGILSDHQQSQFCKSTGESAQTSQH
B3: MORT-1: Mediator of Receptor-induced Toxicity; protein binding the intracellular domain of FAS-R, SEQ ID NO:2 (protein)
chain: T1 sequence (Q13158 with tags, fused parts or gaps G32V)

Key:
[1] = test system: breast carcinoma MCF7 cells; test: Cell death on overexpression of MACH isoforms in MCF7 cells; format: cell-based, human; details: β-galactosidase-expressing cells with apoptopic morphology, 20 h after transfection
Experimental: To explore the involvement of MACH in cell-death induction, the effect of overexpression of various MACH isoforms on cell viability was examined. The test was performed by transfecting MACH expression vectors together with a β-galactosidase expression vector as a transfection marker into human embryonic kidney 293-EBNA cells and breast carcinoma MCF7 cells.
In brief, 293-EBNA cells, MCF7 human breast carcinoma cells and HeLa HtTA-1 cells were grown in Dulbecco's modified Eagle's minimal essential medium supplemented with 10% fetal calf serum, nonessential amino acids, 100 U/ml penicillin and 100 μg/ml streptomycin. Cell tissue culture dishes (5×10^5 293-EBNA cells, 3×10^5 s MCF7 cells or 3×10^5 HeLa cells in 6-cm dishes) were transiently transfected, using the calcium phosphate precipitation method, with the cDNAs of the indicated proteins together with the β-galactosidase expression vector. In the experiments presented in FIGS. 14A-D and 15, each dish was transfected with 3.5 μg of the indicated MACH construct and 1.5 μg of pSV-β-gal. In the experiments presented in FIGS. 16A-D and 17-19, each dish was transfected with 2.5 μg of the indicated MACH or MORT1 construct (or, as control, empty vector) and 1.5 μg of pSV-β-gal. The cells were rinsed 6 to 10 h after transfection. The 293-EBNA and MCF7 cells were incubated for a further 18 h without additional treatment. The HeLa cells were incubated for 26 h after transfection and-then for 5 h in the presence of either anti-Fas.APO1 antibody (CH11, 0.5 μg/ml) or TNF (100 ng/ml), together with cycloheximide (10 μg/ml). The extent of cell death at the end of the incubation periods was assessed by determination of β-galactosidase expression, as described by Kumar et al, 1994.
In particular, FIGS. 14A-D show the morphology of human embryonic kidney 293-EBNA cells transiently expressing the indicated MACH isoforms. The arrows (FIG. 14B) point to apoptopic cells. Photographs were taken 26 h after transfection. […] Data are from three independent experiments with the 293-EBNA cells and two independent experiments with the MCF7 cells.

MORT-1 = target: T1, MORT-1; test: Two-hybrid β-galactosidase expression filter assay in SFY526 yeast, DNA-binding domain hybrid MORT-1; design: the full-length MORT-1 cDNA was used (MORT 1); expressed in transfected cells; host or cells: SFY526 yeast; details: substance as activation domain hybrid
Text: To isolate proteins interacting with the intracellular domain of the FAS-R, the yeast two-hybrid system was used (Fields and Song, 1989). […] In this system, the genes for the candidate interacting proteins are cloned into separate expression vectors. In one expression vector, the sequence of the one candidate protein is cloned in phase with the sequence of the GAL4 DNA-binding domain to generate a hybrid protein with the GAL4 DNA-binding-domain, and in the other vector, the sequence of the second candidate protein is cloned in phase with the sequence of the GAL4 activation domain to generate a hybrid protein with the GAL4-activation domain. The two hybrid vectors are then co-transformed into a yeast host strain having a lacZ or HIS3 reporter gene under the control of upstream GAL4 binding sites. Only those transformed host cells (cotransformants) in which the two hybrid proteins are expressed and are capable of interacting with each other, will be capable of expressing the reporter gene. […]
The yeast two-hybrid test was further applied to evaluate the specificity of binding of MACH to MORT-1, in particular, to define the region in MORT-1 to which MACH binds, as well as to determine which of the MACH ORFs interacts with MORT-1, the procedures being as set forth herein above in Examples 1 and 2. Briefly, various MORT-1 and MACH constructs were prepared for testing the interaction of the proteins encoded by the Gal4 DNA-binding domain and activation domain constructs within transfected SFY526 yeast cells as assessed by the β-galactosidase expression filter assay. […] In the assay, the development of color was determined, where the greater the color development, the greater the interaction between the constructs encoded by the DNA-binding domain and activation domain; Color development was depicted by symbols, where “+++” and “+” indicate the development of a strong color within 30 and 90 min. of the assay, respectively, and “−−−” indicates the lack of development of color within 24 hrs. of the assay. […]

Molecule	cell death of transfected MCF7 cells [1]	development of color (interaction with DNA-binding domain hybrid) (MORT-1)
B1	No death	
B2	some slight cell death	+++ (“+++” and “+” indicate the development of a strong color within 30 and 90 min. of the assay, respectively)
B3		+++ (“+++” and “+” indicate the development of a strong color within 30 and 90 min. of the assay, respectively)
